{"source": "IntAct's records for PubMed 25910212", "parents": {"B1": {"name": "Neutrophil cytosol factor 2 (Homo sapiens), P19878 (parent)", "chain": "MSLVEAISLWNEGVLAADKKDWKGALDAFSAVQDPHSRICFNIGCMYTILKNMTEAEKAFTRSINRDKHLAVAYFQRGMLYYQTEKYDLAIKDLKEALIQLRGNQLIDYKILGLQFKLFACEVLYNIAFMYAKKEEWKKAEEQLALATSMKSEPRHSKIDKAMECVWKQKLYEPVVIPVGKLFRPNERQVAQLAKKDYLGKATVVASVVDQDSFSGFAPLQPQAAEPPPRPKTPEIFRALEGEAHRVLFGFVPETKEELQVMPGNIVFVLKKGNDNWATVMFNGQKGLVPCNYLEPVELRIHPQQQPQEESSPQSDIPAPPSSKAPGRPQLSPGQKQKEEPKEVKLSVPMPYTLKVHYKYTVVMKTQPGLPYSQVRDMVSKKLELRLEHTKLSYRPRDSNELVPLSEDSMKDAWGQVKNYCLTLWCENTVGDQGFPDEPKESEKADANNQTTEPQLKKGSQVEALFSYEATQPEDLEFQEGDIILVLSKVNEEWLEGECKGKVGIFPKVFVEDCATTDLESTRREV"}, "B2": {"name": "Retinoic acid receptor RXR-gamma (Homo sapiens), P48443 (parent)", "chain": "MYGNYSHFMKFPAGYGGSPGHTGSTSMSPSAALSTGKPMDSHPSYTDTPVSAPRTLSAVGTPLNALGSPYRVITSAMGPPSGALAAPPGINLVAPPSSQLNVVNSVSSSEDIKPLPGLPGIGNMNYPSTSPGSLVKHICAICGDRSSGKHYGVYSCEGCKGFFKRTIRKDLIYTCRDNKDCLIDKRQRNRCQYCRYQKCLVMGMKREAVQEERQRSRERAESEAECATSGHEDMPVERILEAELAVEPKTESYGDMNMENSTNDPVTNICHAADKQLFTLVEWAKRIPHFSDLTLEDQVILLRAGWNELLIASFSHRSVSVQDGILLATGLHVHRSSAHSAGVGSIFDRVLTELVSKMKDMQMDKSELGCLRAIVLFNPDAKGLSNPSEVETLREKVYATLEAYTKQKYPEQPGRFAKLLLRLPALRSIGLKCLEHLFFFKLIGDTPIDTFLMEMLETPLQIT", "partner": "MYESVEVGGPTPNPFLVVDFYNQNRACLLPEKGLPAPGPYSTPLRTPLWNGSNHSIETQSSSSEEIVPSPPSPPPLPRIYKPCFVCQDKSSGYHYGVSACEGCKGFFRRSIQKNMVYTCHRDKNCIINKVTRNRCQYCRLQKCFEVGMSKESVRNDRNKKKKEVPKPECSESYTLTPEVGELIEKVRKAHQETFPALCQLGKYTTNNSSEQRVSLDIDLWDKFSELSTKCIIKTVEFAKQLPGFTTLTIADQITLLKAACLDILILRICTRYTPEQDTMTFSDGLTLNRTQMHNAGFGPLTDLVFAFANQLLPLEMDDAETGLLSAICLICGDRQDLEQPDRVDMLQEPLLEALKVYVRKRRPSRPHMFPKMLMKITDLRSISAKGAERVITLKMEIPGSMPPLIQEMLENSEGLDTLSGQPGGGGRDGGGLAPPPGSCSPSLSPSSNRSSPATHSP"}, "B3": {"name": "U4/U6 small nuclear ribonucleoprotein Prp31 (Homo sapiens), Q8WWY3 (parent)", "chain": "MSLADELLADLEEAAEEEEGGSYGEEEEEPAIEDVQEETQLDLSGDSVKTIAKLWDSKMFAEIMMKIEEYISKQAKASEVMGPVEAAPEYRVIVDANNLTVEIENELNIIHKFIRDKYSKRFPELESLVPNALDYIRTVKELGNSLDKCKNNENLQQILTNATIMVVSVTASTTQGQQLSEEELERLEEACDMALELNASKHRIYEYVESRMSFIAPNLSIIIGASTAAKIMGVAGGLTNLSKMPACNIMLLGAQRKTLSGFSSTSVLPHTGYIYHSDIVQSLPPDLRRKAARLVAAKCTLAARVDSFHESTEGKVGYELKDEIERKFDKWQEPPPVKQVKPLPAPLDGQRKKRGGRRYRKMKERLGLTEIRKQANRMSFGEIEEDAYQEDLGFSLGHLGKSGSGRVRQTQVNEATKARISKTLQRTLQKQSVVYGGKSTIRDRSSGTASSVAFTPLQGLEIVNPQAAEKKVAEANQKYFSSMAEFLKVKGEKSGLMST", "partner": "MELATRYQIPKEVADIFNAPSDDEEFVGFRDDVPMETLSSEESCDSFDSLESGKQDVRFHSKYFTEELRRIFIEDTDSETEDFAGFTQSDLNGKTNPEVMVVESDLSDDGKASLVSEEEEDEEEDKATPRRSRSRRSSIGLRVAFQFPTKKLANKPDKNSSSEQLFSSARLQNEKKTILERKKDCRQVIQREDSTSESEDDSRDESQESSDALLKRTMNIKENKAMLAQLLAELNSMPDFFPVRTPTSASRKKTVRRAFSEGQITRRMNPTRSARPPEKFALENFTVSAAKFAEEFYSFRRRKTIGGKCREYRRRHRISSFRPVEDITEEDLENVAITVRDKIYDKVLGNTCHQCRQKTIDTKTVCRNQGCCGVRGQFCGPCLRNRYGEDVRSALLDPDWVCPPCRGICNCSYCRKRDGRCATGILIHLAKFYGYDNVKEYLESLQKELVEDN"}, "B4": {"name": "Beta-crystallin B1 (Homo sapiens), P53674 (parent)", "chain": "MSQAAKASASATVAVNPGPDTKGKGAPPAGTSPSPGTTLAPTTVPITSAKAAELPPGNYRLVVFELENFQGRRAEFSGECSNLADRGFDRVRSIIVSAGPWVAFEQSNFRGEMFILEKGEYPRWNTWSSSYRSDRLMSFRPIKMDAQEHKISLFEGANFKGNTIEIQGDDAPSLWVYGFSDRVGSVKVSSGTWVGYQYPGYRGYQYLLEPGDFRHWNEWGAFQPQMQSLRRLRDKQWHLEGSFPVLATEPPK", "partner": "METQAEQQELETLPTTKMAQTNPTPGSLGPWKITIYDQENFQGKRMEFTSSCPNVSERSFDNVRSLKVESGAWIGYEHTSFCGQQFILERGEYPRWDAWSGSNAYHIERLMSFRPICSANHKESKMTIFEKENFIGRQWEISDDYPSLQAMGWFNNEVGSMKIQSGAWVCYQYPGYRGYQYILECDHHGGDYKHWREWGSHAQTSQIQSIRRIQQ"}, "B5": {"name": "Chorion-specific transcription factor GCMb (Homo sapiens), O75603 (parent)", "chain": "MPAAAVQEAVGVCSYGMQLSWDINDPQMPQELALFDQFREWPDGYVRFIYSSDEKKAQRHLSGWAMRNTNNHNGHILKKSCLGVVVCTQACTLPDGSRLQLRPAICDKARLKQQKKACPNCHSALELIPCRGHSGYPVTNFWRLDGNAIFFQAKGVHDHPRPESKSETEARRSAIKRQMASFYQPQKKRIRESEAEENQDSSGHFSNIPPLENPEDFDIVTETSFPIPGQPCPSFPKSDVYKATCDLATFQGDKMPPFQKYSSPRIYLPRPPCSYELANPGYTNSSPYPTLYKDSTSIPNDTDWVHLNTLQCNVNSYSSYERSFDFTNKQHGWKPALGKPSLVERTNHGQFQAMATRPYYNPELPCRYLTTPPPGAPALQTVITTTTKVSYQAYQPPAMKYSDSVREVKSLSSCNYAPEDTGMSVYPEPWGPPVTVTRAASPSGPPPMKIAGDCRAIRPTVAIPHEPVSSRTDEAETWDVCLSGLGSAVSYSDRVGPFFTYNNEDF", "partner": "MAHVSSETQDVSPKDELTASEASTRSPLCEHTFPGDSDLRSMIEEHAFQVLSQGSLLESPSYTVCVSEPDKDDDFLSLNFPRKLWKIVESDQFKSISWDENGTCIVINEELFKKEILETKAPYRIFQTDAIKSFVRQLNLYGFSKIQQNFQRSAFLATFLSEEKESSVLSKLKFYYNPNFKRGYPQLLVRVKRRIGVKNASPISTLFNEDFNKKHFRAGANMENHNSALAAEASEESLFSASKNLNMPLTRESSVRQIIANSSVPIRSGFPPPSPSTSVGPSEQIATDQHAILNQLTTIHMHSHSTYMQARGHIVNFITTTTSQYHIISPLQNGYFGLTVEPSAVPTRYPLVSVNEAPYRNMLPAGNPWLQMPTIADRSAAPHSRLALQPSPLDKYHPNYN"}, "B6": {"name": "ATP synthase mitochondrial F1 complex assembly factor 2 (Homo sapiens), Q8N5M1 (parent)", "chain": "MWRSCLRLRDGGRRLLNRPAGGPSASMSPGPTIPSPARAYAPPTERKRFYQNVSITQGEGGFEINLDHRKLKTPQAKLFTVPSEALAIAVATEWDSQQDTIKYYTMHLTTLCNTSLDNPTQRNKDQLIRAAVKFLDTDTICYRVEEPETLVELQRNEWDPIIEWAEKRYGVEISSSTSIMGPSIPAKTREVLVSHLASYNTWALQGIEFVAAQLKSMVLTLGLIDLRLTVEQAVLLSRLEEEYQIQKWGNIEWAHDYELQELRARTAAGTLFIHLCSESTTVKHKLLKE", "partner": "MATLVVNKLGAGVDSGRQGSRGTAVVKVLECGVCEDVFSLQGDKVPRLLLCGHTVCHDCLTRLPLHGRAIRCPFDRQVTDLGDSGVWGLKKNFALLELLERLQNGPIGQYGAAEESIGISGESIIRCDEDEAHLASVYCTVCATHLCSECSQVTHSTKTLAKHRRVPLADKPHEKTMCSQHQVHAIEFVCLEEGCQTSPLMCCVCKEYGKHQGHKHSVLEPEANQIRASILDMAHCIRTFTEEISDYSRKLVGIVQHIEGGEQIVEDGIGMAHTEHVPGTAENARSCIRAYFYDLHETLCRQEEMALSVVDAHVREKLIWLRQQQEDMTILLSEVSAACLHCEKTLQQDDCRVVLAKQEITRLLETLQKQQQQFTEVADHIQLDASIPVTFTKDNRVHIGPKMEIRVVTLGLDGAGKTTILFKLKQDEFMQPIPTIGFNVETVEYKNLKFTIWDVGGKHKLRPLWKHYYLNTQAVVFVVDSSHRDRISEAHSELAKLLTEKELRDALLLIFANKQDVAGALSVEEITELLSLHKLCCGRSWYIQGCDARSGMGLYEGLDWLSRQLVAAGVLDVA"}, "B7": {"name": "Progranulin (Homo sapiens), P28799 (parent)", "chain": "MWTLVSWVALTAGLVAGTRCPDGQFCPVACCLDPGGASYSCCRPLLDKWPTTLSRHLGGPCQVDAHCSAGHSCIFTVSGTSSCCPFPEAVACGDGHHCCPRGFHCSADGRSCFQRSGNNSVGAIQCPDSQFECPDFSTCCVMVDGSWGCCPMPQASCCEDRVHCCPHGAFCDLVHTRCITPTGTHPLAKKLPAQRTNRAVALSSSVMCPDARSRCPDGSTCCELPSGKYGCCPMPNATCCSDHLHCCPQDTVCDLIQSKCLSKENATTDLLTKLPAHTVGDVKCDMEVSCPDGYTCCRLQSGAWGCCPFTQAVCCEDHIHCCPAGFTCDTQKGTCEQGPHQVPWMEKAPAHLSLPDPQALKRDVPCDNVSSCPSSDTCCQLTSGEWGCCPIPEAVCCSDHQHCCPQGYTCVAEGQCQRGSEIVAGLEKMPARRASLSHPRDIGCDQHTSCPVGQTCCPSLGGSWACCQLPHAVCCEDRQHCCPAGYTCNVKARSCEKEVVSAQPATFLARSPHVGVKDVECGEGHFCHDNQTCCRDNRQGWACCPYRQGVCCADRRHCCPAGFRCAARGTKCLRREAPRWDAPLRDPALRQLL", "partner": "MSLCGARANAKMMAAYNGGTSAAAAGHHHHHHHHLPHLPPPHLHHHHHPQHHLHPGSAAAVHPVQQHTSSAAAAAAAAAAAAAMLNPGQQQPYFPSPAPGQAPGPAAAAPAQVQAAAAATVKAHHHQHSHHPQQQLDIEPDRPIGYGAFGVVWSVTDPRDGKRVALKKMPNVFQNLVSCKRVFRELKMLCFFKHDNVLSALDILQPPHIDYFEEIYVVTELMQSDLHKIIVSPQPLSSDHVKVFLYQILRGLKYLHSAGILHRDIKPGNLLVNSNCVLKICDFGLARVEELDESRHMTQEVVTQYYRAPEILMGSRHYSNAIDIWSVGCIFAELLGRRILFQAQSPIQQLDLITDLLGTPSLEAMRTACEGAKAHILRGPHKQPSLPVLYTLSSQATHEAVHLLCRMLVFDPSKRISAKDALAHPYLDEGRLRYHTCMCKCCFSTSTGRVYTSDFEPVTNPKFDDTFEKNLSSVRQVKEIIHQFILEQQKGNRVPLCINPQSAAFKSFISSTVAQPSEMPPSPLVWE"}}, "data": [{"variants_of": "B1", "details": "with goga2_human GOLGA2, Q08379", "values": [{"variant": "R77Q", "effect of a mutation on the interaction": "disrupting interaction strength"}]}, {"variants_of": "B1", "details": "with kifa3_human KIFAP3, Q92845", "values": [{"variant": "R77Q", "effect of a mutation on the interaction": "disrupting interaction strength"}]}, {"variants_of": "B2", "details": "with RARA", "values": [{"variant": "G14S", "effect of a mutation on the interaction": "with no effect"}]}, {"variants_of": "B3", "details": "with CDCA7L", "values": [{"variant": "L107V", "effect of a mutation on the interaction": "with no effect"}]}, {"variants_of": "B4", "details": "with crba1_human CRYBA1, P05813", "values": [{"variant": "S228P", "effect of a mutation on the interaction": "disrupting interaction strength"}]}, {"variants_of": "B5", "details": "with hsfy1_human HSFY1, Q96LI6", "values": [{"variant": "R47L", "effect of a mutation on the interaction": "disrupting interaction strength"}, {"variant": "G63S", "effect of a mutation on the interaction": "disrupting interaction strength"}, {"variant": "G203S", "effect of a mutation on the interaction": "with no effect"}]}, {"variants_of": "B6", "details": "with tri23_human TRIM23, P36406", "values": [{"variant": "W94R", "effect of a mutation on the interaction": "disrupting interaction strength"}]}, {"variants_of": "B7", "details": "with nlk_human NLK", "values": [{"variant": "P451L", "effect of a mutation on the interaction": "disrupting interaction strength"}, {"variant": "R432C", "effect of a mutation on the interaction": "disrupting interaction strength"}]}]}
